Measured values as given in paper PMC4277400.

Target: H1-HFBI: hemagglutinin ectodomain of influenza A/Texas/05/2009 (H1N1) fused to hydrophobin I (Influenza A/Texas/05/2009 (H1N1) virus | Trichoderma reesei) (UniProt P52754)
Test: SEC

H1-HFBI: hemagglutinin ectodomain of influenza A/Texas/05/2009 (H1N1) fused to hydrophobin I (from UniProt P52754 23-97)
ratio of HMWO/monomer: 2
